Test results as given in patent US20130315910A1 (Xencor, published 2013).

T1: human FcγRIIb receptor protein (R&D Systems) (human, UniProt P31994 46-217)
T1 construct: Bought protein injected over captured antibody in Biacore; also called CD32b
T1 sequence (looked up): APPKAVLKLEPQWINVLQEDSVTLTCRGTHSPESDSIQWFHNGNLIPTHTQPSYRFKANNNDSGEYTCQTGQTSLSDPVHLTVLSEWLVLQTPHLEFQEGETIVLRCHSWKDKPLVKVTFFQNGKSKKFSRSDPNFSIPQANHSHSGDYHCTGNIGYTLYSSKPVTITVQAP

T2: human FcγRIIa (131R), His- and GST-tagged (human, UniProt P12318 34-217)
T2 construct: Expressed in HEK293T cells, purified by nickel chromatography; also called R131 FcγRIIa; not shown: 6xHis and GST tags of the pTT5 vector
T2 sequence (looked up): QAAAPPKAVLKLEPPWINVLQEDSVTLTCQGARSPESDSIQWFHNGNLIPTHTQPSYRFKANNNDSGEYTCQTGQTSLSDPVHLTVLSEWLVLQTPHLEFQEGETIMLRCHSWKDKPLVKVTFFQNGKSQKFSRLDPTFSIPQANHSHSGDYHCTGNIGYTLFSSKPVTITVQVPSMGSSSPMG

T3: human FcγRIIa (131H), His- and GST-tagged (human, UniProt P12318 34-217)
T3 construct: also called H131 FcγRIIa; HIIa; not shown: 6xHis and GST tags of the pTT5 vector
T3 sequence (looked up): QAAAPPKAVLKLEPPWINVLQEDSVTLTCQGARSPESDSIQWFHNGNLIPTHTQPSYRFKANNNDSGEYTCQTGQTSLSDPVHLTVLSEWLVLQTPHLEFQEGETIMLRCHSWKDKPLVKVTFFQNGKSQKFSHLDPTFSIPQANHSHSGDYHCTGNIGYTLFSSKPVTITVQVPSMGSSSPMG

T4: mFcγRIIb (Mus musculus, UniProt P08101)
T4 construct: extracellular region, C-terminal His- and GST-tag; also called mouse FcγRII
T4 sequence (receptor extracellular region, looked up): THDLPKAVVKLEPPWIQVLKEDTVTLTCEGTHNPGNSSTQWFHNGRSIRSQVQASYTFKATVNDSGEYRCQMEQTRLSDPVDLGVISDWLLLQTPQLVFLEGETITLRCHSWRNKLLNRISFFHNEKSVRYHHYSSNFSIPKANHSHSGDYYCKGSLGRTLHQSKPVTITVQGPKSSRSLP

T5: mFcγRIV
T5 construct: also called mouse FcγRIV; not shown: C-terminal His and GST tags (named only on our card)
T5 chain: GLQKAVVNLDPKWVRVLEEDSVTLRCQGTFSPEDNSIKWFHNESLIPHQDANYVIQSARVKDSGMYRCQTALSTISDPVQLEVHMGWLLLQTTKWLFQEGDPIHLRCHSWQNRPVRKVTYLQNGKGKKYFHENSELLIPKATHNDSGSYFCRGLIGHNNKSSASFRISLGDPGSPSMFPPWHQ

T6: cynoFcγRIIb (Macaca fascicularis, UniProt A0A140HDP4)
T6 construct: extracellular region, C-terminal His- and GST-tag; also called cynomolgus monkey FcγRIIb
T6 sequence (receptor extracellular region): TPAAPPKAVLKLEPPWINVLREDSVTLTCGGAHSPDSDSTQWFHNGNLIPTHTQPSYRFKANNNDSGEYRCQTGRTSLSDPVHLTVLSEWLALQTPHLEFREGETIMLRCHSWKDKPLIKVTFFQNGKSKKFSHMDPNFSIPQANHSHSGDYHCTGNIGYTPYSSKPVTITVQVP


What was measured:
[1] = target: T1, human FcγRIIb receptor protein (R&D …); experiment: SPR
[2] = target: T7, human FcγRI receptor protein (R&D Systems) (human, UniProt P12314 16-288); experiment: SPR
T7 construct: also called soluble FcγRI; solFcγRI
T7 sequence (P12314 16-288 limits assumed): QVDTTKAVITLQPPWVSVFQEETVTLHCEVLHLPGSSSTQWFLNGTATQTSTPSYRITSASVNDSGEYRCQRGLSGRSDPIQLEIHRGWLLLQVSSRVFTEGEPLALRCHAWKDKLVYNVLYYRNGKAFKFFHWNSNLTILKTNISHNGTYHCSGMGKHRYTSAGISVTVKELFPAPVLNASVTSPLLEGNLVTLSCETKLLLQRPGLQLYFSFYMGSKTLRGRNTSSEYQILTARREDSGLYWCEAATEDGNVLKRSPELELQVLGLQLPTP

[3] = target: T2, human FcγRIIa (131R), His- and …; experiment: SPR
[4] = target: T3, human FcγRIIa (131H), His- and …; experiment: SPR
[5] = target: T8, human FcγRIIIa (158V), His- and GST-tagged (human, UniProt P08637 17-208); experiment: SPR
T8 construct: also called V158 FcγRIIIa; VIIIa; not shown: 6xHis and GST tags of the pTT5 vector
T8 sequence (P08637 17-208 F176V): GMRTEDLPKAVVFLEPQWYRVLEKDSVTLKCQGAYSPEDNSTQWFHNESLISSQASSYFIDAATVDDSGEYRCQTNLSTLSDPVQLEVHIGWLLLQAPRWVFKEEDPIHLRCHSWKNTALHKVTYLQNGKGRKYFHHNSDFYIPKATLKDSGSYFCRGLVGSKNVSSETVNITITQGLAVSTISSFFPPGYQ

mFcγRIIb [6] = target: T4, mFcγRIIb; experiment: SPR
mFcγRIV = target: T5, mFcγRIV; experiment: SPR
cynoFcγRIIIa = target: T9, cynoFcγRIIIa (Macaca fascicularis, UniProt Q8SPW2); experiment: SPR
T9 construct: extracellular region, C-terminal His- and GST-tag; also called cynomolgus monkey FcγRIIIa
T9 sequence (Q8SPW2 17-208): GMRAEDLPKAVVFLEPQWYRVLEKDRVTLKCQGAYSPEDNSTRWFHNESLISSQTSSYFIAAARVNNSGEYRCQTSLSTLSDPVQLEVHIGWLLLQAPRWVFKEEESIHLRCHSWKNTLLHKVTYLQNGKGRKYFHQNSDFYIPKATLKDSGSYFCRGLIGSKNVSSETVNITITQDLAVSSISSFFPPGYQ

cynoFcγRIIb [7] = target: T6, cynoFcγRIIb; experiment: SPR, off-rate
Experimental: (§1) Variants were screened for receptor affinity using Biacore™ technology, also referred to as Biacore herein, a surface plasmon resonance (SPR) based technology for studying biomolecular interactions in real time. SPR measurements were performed using a Biacore 3000 instrument (Biacore, Piscataway, N.J.). A protein A/G (Pierce Biotechnology) CM5 biosensor chip (Biacore) was generated using a standard primary amine coupling protocol. All measurements were performed using HBS-EP buffer (10 mM HEPES pH 7.4, 0.15 M NaCl, 3 mM EDTA, 0.005% vol/vol surfactant P20, Biacore). Antibodies at 20 nM or 50 nM in HBS-EP buffer were immobilized on the protein A/G surface and FcγRs were injected. After each cycle, the surface was regenerated by injecting glycine buffer (10 mM, pH 1.5). Data were processed by zeroing time and response before the injection of FcγR and by subtracting appropriate nonspecific signals (response of reference channel and injection of running buffer). Kinetic analyses were performed by global fitting of binding data with a 1:1 Langmuir binding model using BIAevaluation software (Biacore).
(§2) Variant antibodies were tested for their affinity to mouse or cynologous monkey FcγRs using Biacore SPR as described above. Specifically, antibodies were first immobilized on a protein A/G chip to high density, and then followed by injections of the extracellular domain of the mouse or cynologous monkey FcγR of interest. Both association and dissociation phases were tracked in real time using the Biacore technology.

mFcγRIIb [8] = target: T4, mFcγRIIb; experiment: SPR, off-rate
Experimental: as §1, §2

cynoFcγRIIb [9] = target: T6, cynoFcγRIIb; experiment: SPR
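Throughout, for Fold vs WT IgG1 (off-rate): fold improvement over WT IgG1 so higher means slower dissociation than WT.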

| Fold vs WT IgG1 [1] | Kd [1] | Fold vs WT IgG1 [2] | Kd [2] | Fold vs WT IgG1 [3] | Kd [3] | binding result [4] | binding result [5] | Fold vs WT IgG1 (off-rate) (mFcγRIIb [6]) | Fold vs WT IgG1 (off-rate) (mFcγRIV) | Fold vs WT IgG1 (off-rate) (cynoFcγRIIIa) | binding result (cynoFcγRIIb [7]) | binding result (mFcγRIIb [8]) | binding result [1] | binding result [3] | Fold vs WT IgG1 [4] | Kd [4] | Fold vs WT IgG1 (off-rate) (cynoFcγRIIb [9]) | Fold vs WT IgG1 [5] | Kd [5] | Binder |
| --- | --- | --- | --- | --- | --- | --- | --- | --- | --- | --- | --- | --- | --- | --- | --- | --- | --- | --- | --- | --- |
| 0.843 fold | 1740 nM | 0.0279 fold | 11.8 nM | 0.609 fold | 1410 nM | no binding | no binding | 0.643 fold | 1.16 fold | 0.313 fold | no binding |  |  |  |  |  |  |  |  | A327N (antibody, human IgG1, kappa, HuAM4G7 anti-CD19 IgG1 (m1) with this Fc substitution, EU index; copies: 2 + 2) heavy: not shown light: DIVMTQSPATLSLSPGERATLSCRSSKSLQNVNGNTYLYWFQQKPGQSPQLLIYRMSNLNSGVPDRFSGSGSGTEFTLTISSLEPEDFAVYYCMQHLEYPITFGAGTKLEIKRTVAAPSVFIFPPSDEQLKSGTASVVCLLNNFYPREAKVQWKVDNALQSGNSQESVTEQDSKDSTYSLSSTLTLSKADYEKHKVYACEVTHQGLSSPVTKSFNRGEC |
| 28.4 fold | 51.7 nM | 0.0176 fold | 18.7 nM | 32.5 fold | 26.4 nM |  | no binding |  | 0.515 fold | 0.255 fold |  | no binding |  |  | 0.402 fold | 1610 nM | 1.39 fold |  |  | L235F/S267E (antibody, human IgG1, kappa, HuAM4G7 anti-CD19 IgG1 (m1) with these Fc substitutions, EU index; copies: 2 + 2) heavy: not shown light: DIVMTQSPATLSLSPGERATLSCRSSKSLQNVNGNTYLYWFQQKPGQSPQLLIYRMSNLNSGVPDRFSGSGSGTEFTLTISSLEPEDFAVYYCMQHLEYPITFGAGTKLEIKRTVAAPSVFIFPPSDEQLKSGTASVVCLLNNFYPREAKVQWKVDNALQSGNSQESVTEQDSKDSTYSLSSTLTLSKADYEKHKVYACEVTHQGLSSPVTKSFNRGEC |
| 1.91 fold | 770 nM | 1.25 fold | 0.264 nM | 3.13 fold | 274 nM |  |  | 2.04 fold |  | 0.433 fold | no binding |  |  |  | 1.17 fold | 553 nM |  | 0.547 fold | 350 nM | V266M (antibody, human IgG1, kappa, HuAM4G7 anti-CD19 IgG1 (m1) with this Fc substitution, EU index; copies: 2 + 2) heavy: not shown light: DIVMTQSPATLSLSPGERATLSCRSSKSLQNVNGNTYLYWFQQKPGQSPQLLIYRMSNLNSGVPDRFSGSGSGTEFTLTISSLEPEDFAVYYCMQHLEYPITFGAGTKLEIKRTVAAPSVFIFPPSDEQLKSGTASVVCLLNNFYPREAKVQWKVDNALQSGNSQESVTEQDSKDSTYSLSSTLTLSKADYEKHKVYACEVTHQGLSSPVTKSFNRGEC |

More lines, now with the values behind:

| Binder | Fold vs WT IgG1 [1] | Kd [1] | Fold vs WT IgG1 [2] | Kd [2] | Fold vs WT IgG1 [3] | Kd [3] | binding result [4] | binding result [5] | Fold vs WT IgG1 (off-rate) (mFcγRIIb [6]) | Fold vs WT IgG1 (off-rate) (mFcγRIV) | Fold vs WT IgG1 (off-rate) (cynoFcγRIIIa) | binding result (cynoFcγRIIb [7]) | binding result (mFcγRIIb [8]) | binding result [1] | binding result [3] | Fold vs WT IgG1 [4] | Kd [4] | Fold vs WT IgG1 (off-rate) (cynoFcγRIIb [9]) | Fold vs WT IgG1 [5] | Kd [5] |
| --- | --- | --- | --- | --- | --- | --- | --- | --- | --- | --- | --- | --- | --- | --- | --- | --- | --- | --- | --- | --- |
| anti-CD19 antibody HuAM4G7 IgG1 S267G (antibody, Positions in EU numbering; copies: 2 + 2) heavy: not shown light: DIVMTQSPATLSLSPGERATLSCRSSKSLQNVNGNTYLYWFQQKPGQSPQLLIYRMSNLNSGVPDRFSGSGSGTEFTLTISSLEPEDFAVYYCMQHLEYPITFGAGTKLEIKRTVAAPSVFIFPPSDEQLKSGTASVVCLLNNFYPREAKVQWKVDNALQSGNSQESVTEQDSKDSTYSLSSTLTLSKADYEKHKVYACEVTHQGLSSPVTKSFNRGEC |  | 1450 nM |  | 0.626 nM |  | 517 nM |  |  |  |  |  | no binding | no binding |  |  |  |  |  |  |  |
| L234N (antibody, human IgG1, kappa, HuAM4G7 anti-CD19 IgG1 (m1) with this Fc substitution, EU index; copies: 2 + 2) heavy: not shown light: DIVMTQSPATLSLSPGERATLSCRSSKSLQNVNGNTYLYWFQQKPGQSPQLLIYRMSNLNSGVPDRFSGSGSGTEFTLTISSLEPEDFAVYYCMQHLEYPITFGAGTKLEIKRTVAAPSVFIFPPSDEQLKSGTASVVCLLNNFYPREAKVQWKVDNALQSGNSQESVTEQDSKDSTYSLSSTLTLSKADYEKHKVYACEVTHQGLSSPVTKSFNRGEC |  |  |  |  |  |  |  |  |  | 0.2 fold | 0.371 fold | no binding | no binding | no binding | no binding |  |  |  |  |  |
| L235E (antibody, human IgG1, kappa, HuAM4G7 anti-CD19 IgG1 (m1) with this Fc substitution, EU index; copies: 2 + 2) heavy: not shown light: DIVMTQSPATLSLSPGERATLSCRSSKSLQNVNGNTYLYWFQQKPGQSPQLLIYRMSNLNSGVPDRFSGSGSGTEFTLTISSLEPEDFAVYYCMQHLEYPITFGAGTKLEIKRTVAAPSVFIFPPSDEQLKSGTASVVCLLNNFYPREAKVQWKVDNALQSGNSQESVTEQDSKDSTYSLSSTLTLSKADYEKHKVYACEVTHQGLSSPVTKSFNRGEC | 0.55 fold | 2670 nM |  |  | 0.333 fold | 2580 nM |  |  |  | 0.857 fold | 0.367 fold | no binding | no binding |  |  |  |  |  |  |  |
| A327Q (antibody, human IgG1, kappa, HuAM4G7 anti-CD19 IgG1 (m1) with this Fc substitution, EU index; copies: 2 + 2) heavy: not shown light: DIVMTQSPATLSLSPGERATLSCRSSKSLQNVNGNTYLYWFQQKPGQSPQLLIYRMSNLNSGVPDRFSGSGSGTEFTLTISSLEPEDFAVYYCMQHLEYPITFGAGTKLEIKRTVAAPSVFIFPPSDEQLKSGTASVVCLLNNFYPREAKVQWKVDNALQSGNSQESVTEQDSKDSTYSLSSTLTLSKADYEKHKVYACEVTHQGLSSPVTKSFNRGEC | 0.011 fold | 134000 nM |  |  | 0.634 fold | 1350 nM |  |  |  | 0.361 fold | 0.223 fold | no binding | no binding |  |  |  |  |  |  |  |
| L235N (antibody, human IgG1, kappa, HuAM4G7 anti-CD19 IgG1 (m1) with this Fc substitution, EU index; copies: 2 + 2) heavy: not shown light: DIVMTQSPATLSLSPGERATLSCRSSKSLQNVNGNTYLYWFQQKPGQSPQLLIYRMSNLNSGVPDRFSGSGSGTEFTLTISSLEPEDFAVYYCMQHLEYPITFGAGTKLEIKRTVAAPSVFIFPPSDEQLKSGTASVVCLLNNFYPREAKVQWKVDNALQSGNSQESVTEQDSKDSTYSLSSTLTLSKADYEKHKVYACEVTHQGLSSPVTKSFNRGEC | 0.147 fold | 10000 nM |  |  | 0.0356 fold | 24100 nM |  |  |  | 0.241 fold | 0.351 fold | no binding | no binding |  |  |  |  |  |  |  |
